From the nanobody polyreactivity screen of Harvey et al. (2022)

test: yeast display, Sf9 membrane polyspecificity reagent, FACS + sequencing; frameworks hold sequencing errors
How it was run: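 Galactose-induced (36–48 hours) yeast carrying a synthetic nanobody display library were exposed to 10% biotinylated, detergent-solubilized Sf9 membrane reagent at 4 °C for 1 hour. FACS followed streptavidin microbead enrichment, using low and high (top ~1%) gates for expression (anti-HA) and reagent binding (streptavidin). Colony PCR, MiSeq 2 × 250 sequencing and CDR-length filtering followed. Labels for polyreactivity reflect the gate of origin.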

Sequence | polyreactivity (PSR sort gate)
QVQLVESGGGLVQAGGSLRLSCAASAFIFISYAMGLYRQAAGKERELVAAISSSGVSTYSADSVKGRFTISRDNAKNTVYLQMNSLKPEDTAVYYCAARQQVRLRQGPLYYYWGQGTQVTVSS | high polyreactivity
QVQLVESGGGLVQAVGSLRLSCADSGRLLSYYDMGWYRQAPGKVRELVARLGGTYYADSVKGRFTISRYIAKNTVYLQMNSLKPEDTAVYYCAAEYGYDFLRSYHEYGYWGQGTQVTVSS | low polyreactivity
QVQLVESGGGLVQAGGSLRLSCAASGSIFSTYAMGWYRQAPGKERELVAAISQGGSSTYYADSVKGRFTISRDIAKNTVYLQMKSLKAEDTAVYYCAKFPYLKFGYDYWGQCTQVTVSS | high polyreactivity
QVQLVESGGGLVQAGGSLRLSCAASGSTFGYYTMGWYRQAPGKERELVAAISWGGGSTYYADSVKGRFTISRDNAKNTVYFQMNSLIPEDTAVYYCARTPVTSYKDDFYYWGQGTQVTVSS | low polyreactivity
QVQLVESGGGLVQAGGSLRLSCAASGRIFDDNTMGWSRQAPGKERELVAAISSGTSTYYADSVKGRFTISRDNAKNTVYLQMNSLKPEDTAVYYCAAVIKWTKDDYWGQGTQVTVSS | high polyreactivity
QVQLVESGGGLVQAGGSLRLSCAASGSIFFGYAMGWYRQAPGKERELVATITSSGGITYYADSVKGRFTISRDNAKNTVYLQMNSLKPEDTAVYYCATYYYYTYDYWGQGTQVTVSS | low polyreactivity
QVQLVDSGGGLVQAGASLRLSCAASGSIFRFYAMGWYRQAPGKERELVAAITSRGSTNYADSVKGRFTISRDNAKNTVYLQMKSLKPEDTAVYYCAAELVYFVIYDYWGLGTQVTVSS | low polyreactivity
QVQLVESGGGLVQAGGSLRLSCAASGFTIWSYAMGWYRQAPGKERELVAAINYRGTSTYYADSVKGRFTISRDNAKNTVYLQMHSLKPEDTAVYYCAARYYTWQRPTYDYWGQGTQVTVSS | high polyreactivity
QVQLVESGGGLVQAGGSLRLSCAASGNTINFYAMGWYRQAPGKEREMVAAISSGGSTNYADSVKGRFTISRDNAKNTVYLQMNSLKPEDSAVYYCAKDVWYLVYYHWKSNRVWQYDYWGQGTQVTVSS | low polyreactivity
QVQLVESGGGLVQAGGSLRLSCAASGRNFWYYAMGWYRQAPGKERELVAGITYGDGSTYYADSVKGRFTISRDNAKNTVYLQMNSLKPEDTAVYYCAVDLRSYWFRYGFDYWGQGTQVTVSS | low polyreactivity
QVQLVESGGGLVQAGGSLRLSCADSGSIFRVNAMGWYRQAPGKDRELVAAISSGGSTHYADSVKGRFTISRDNAKNTVYLQMNSLKPEDTAVYYCAVRYALVPYLWYYWGQGTQVTVSS | high polyreactivity
QVQLVESGGGLVQAGGSLRLSCAASGSISPVYAMGWYRQAPGKERELVAAYADSVKGRFTISRDNAKNTVYLQMNSLIPEDTAVYYCNVVETSQELGWQAFDYWGQGTQVTVSS | low polyreactivity
QVQLVDSGGGLVQAGGSLRLSCAASGSIFYVYAMGWYRQAPGKERELVAAISWTGGSTDYADSVKGRFTISRDNAKNTVYLHMNSLKPEDTAVYYCATELGYGDWYNYWGQGTQVTVSS | low polyreactivity
QVHLVESGGGLVQAGGSLRLSCAASGNTHVKNAMGWYRQAPGKERELVAAISSSGGRTYYGDSVKGRFTISRDNAKNTVYLQMNSLKPDDTAVYYCAARYPSGYYYWGQGTQVTVSS | high polyreactivity
QVQLVESGGGLVQAGGSLRLSCAASGRIFISYTMGWYRQAPGKDRELVAGIDSSGTSTYYADSVKGRFTISRDNAKNTVYLQMNSLKPEDTAVYYCNVDGNWKDTSTELDYWGQGTQVTVSS | low polyreactivity
QVQLVESGGGLGQAGGSLRLSCAASGRIFGGYTMGWYRQAPGKEREFVDTISRSSGSTYYADSVKGRFTISRDHAKNTVYLQMNSLKPEDTAVYYCAAVYLYATGYDYWGQCTQVTVSS | high polyreactivity
